Measurements as given in US20240158497A1 (published 2024).

T1: human gp130 extracellular domain (E23-E619) with C-terminal mouse IgG2a Fc (human)
T1 construct: dimeric; also called hGP130-mFc; human GP130-mFc
T1 chain: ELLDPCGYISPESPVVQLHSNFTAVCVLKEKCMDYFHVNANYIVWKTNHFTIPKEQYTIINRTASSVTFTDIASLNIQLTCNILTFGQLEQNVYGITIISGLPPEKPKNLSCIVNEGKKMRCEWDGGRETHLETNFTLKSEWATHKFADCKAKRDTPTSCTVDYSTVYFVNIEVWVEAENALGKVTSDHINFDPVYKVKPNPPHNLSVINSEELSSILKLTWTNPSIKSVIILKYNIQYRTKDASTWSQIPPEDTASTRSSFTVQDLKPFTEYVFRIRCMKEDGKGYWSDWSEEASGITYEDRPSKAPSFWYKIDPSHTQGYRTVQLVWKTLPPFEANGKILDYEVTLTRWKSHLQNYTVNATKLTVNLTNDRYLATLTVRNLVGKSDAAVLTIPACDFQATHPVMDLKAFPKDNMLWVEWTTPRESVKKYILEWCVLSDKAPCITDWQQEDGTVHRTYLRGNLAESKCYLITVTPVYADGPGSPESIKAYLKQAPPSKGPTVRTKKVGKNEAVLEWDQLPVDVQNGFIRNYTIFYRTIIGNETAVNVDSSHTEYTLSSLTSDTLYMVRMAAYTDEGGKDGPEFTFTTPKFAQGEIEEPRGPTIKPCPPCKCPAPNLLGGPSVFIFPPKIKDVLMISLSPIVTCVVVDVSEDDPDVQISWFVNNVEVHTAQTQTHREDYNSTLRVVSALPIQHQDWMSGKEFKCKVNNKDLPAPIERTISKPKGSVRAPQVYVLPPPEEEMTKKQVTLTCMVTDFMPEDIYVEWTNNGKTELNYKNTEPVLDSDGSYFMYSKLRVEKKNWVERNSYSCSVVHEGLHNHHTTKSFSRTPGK


Assays:
[1] = target: T2, human GP130 full length extracellular domain with C-terminal myc-myc-hexahistidine tag (human, UniProt P40189 23-619); assay: Luminex, antigen captured on anti-myc beads
T2 construct: Monomeric; also called human GP130-MMH; hGP130-mmH
Procedure: (§1) Aliquots of microspheres with immobilized anti-myc monoclonal antibodies, prepared as described above, were added individually to 1 mL of the each of these protein supernatants and to 500 uL of purified GP130 protein. The microspheres were gently mixed, incubated for two hours at 25° C., washed twice with 1 mL of DBPS, centrifuged to remove the supernatant and finally resuspended in 1 mL of DPBS buffer. Forty eight μL of anti-myc IgG coupled microspheres from individual reactions with full length human GP130 and with each of the human GP130 domain proteins were withdrawn and mixed together in 3.6 mL of PBS+20 mg/mL BSA+0.05% sodium azide (blocking buffer).
(§2) From this mixed pool, 75 μL of microspheres were plated per well on a 96 well filter plate (Millipore, Cat. No: MSBVN1250) and mixed with 25 μL of individual anti-human GP130 monoclonal antibodies (0.5 or 5 μg/mL), incubated for two hours at 25° C. and then washed twice with 200 μL of DPBS with 0.05% Tween 20 (washing buffer). To detect and quantify the amounts of bound anti-GP130 antibody levels to individual microspheres, either 100 μL of 2.5 μg/mL R-Phycoerythrin conjugated goat F(ab′)2 anti-human kappa (Southern Biotech, Cat #2063-09) in blocking buffer, was added and incubated for 30 minutes at 25° C. After 30 minutes, the samples were washed twice with 200 μL of washing buffer and resuspended in 150 μL of wash buffer. The Median Fluorescence intensity (MFI) of the microspheres was measured in a Luminex Analyzer.

[2] = target: T3, human GP130 delta D1-D3 with C-terminal myc-myc hexahistidine tag (human, UniProt P40189 329-619); assay: Luminex, antigen captured on anti-myc beads
T3 construct: used as CHO supernatant; also called human GP130 delta D1-D3-MMH; GP130 Delta D1-D3 extracellular domain
Procedure: as §1, §2

[3] = target: T4, human GP130 delta D1 with C-terminal myc-myc hexahistidine tag (human, UniProt P40189 124-619); assay: Luminex, antigen captured on anti-myc beads
T4 construct: used as CHO supernatant; also called human GP130 delta D1-MMH; GP130 Delta D1 extracellular domain
Procedure: as §1, §2

[4] = target: T1, human gp130 extracellular domain …; assay: blocking ELISA, 2.5 nM hGP130-mFc on plate-bound CNTFR/CNTF complex
Procedure: The experiment was carried out using the following procedure. Human CNTFRα was coated at a concentration of […] in HBSS on a 96-well microtiter plate overnight at 4° C. […] Human CNTF at a concentration of 1 μg/ml in HBSS was added to the plate bound CNTFRα for 1 hour at room temperature. In separate dilution plates, a constant amount of 2.5 nM of human GP130-mFc protein was titrated with antibodies ranging from 3.4 pM to 200 nM in serial dilution and with no antibody present. These solutions were incubated for 1 hour at room temperature (RT) and subsequently transferred to the microtiter plates with CNTFRα/CNTF complex without washing. The plates were incubated for 2 hours at RT, washed with PBST buffer, and plate-bound hGP130-mFc was detected with an anti-mFc polyclonal antibody conjugated with horseradish peroxidase (HRP) (Jackson ImmunoResearch Inc). Samples were developed with a TMB solution (BD Biosciences, substrate A and B mixed at 1:1 ratio as per manufacturer's instructions) to produce a colorimetric reaction and then neutralized with 1M sulfuric acid before measuring absorbance at 450 nm on a Victor X5 plate reader.
Data analysis was performed using a sigmoidal dose-response model within Prism™ software (GraphPad). […] Percent blockade at maximum concentration tested was calculated as an indicator of the ability of the antibodies to block binding of GP130 to CNTFRα/CNTF on the plate as determined from the dose curve. The ratio of the reduction in signal observed in the presence of the highest tested concentration of 200 nM antibody, relative to the difference between the signal with 2.5 nM GP130 with no antibody (0% blocking) and the background signal from HRP-conjugated secondary antibody alone (100% blocking), was subtracted from 100% blocking.

T4 sequence (P40189 other isoform, or with tags, fused parts or gaps mutant limits assumed): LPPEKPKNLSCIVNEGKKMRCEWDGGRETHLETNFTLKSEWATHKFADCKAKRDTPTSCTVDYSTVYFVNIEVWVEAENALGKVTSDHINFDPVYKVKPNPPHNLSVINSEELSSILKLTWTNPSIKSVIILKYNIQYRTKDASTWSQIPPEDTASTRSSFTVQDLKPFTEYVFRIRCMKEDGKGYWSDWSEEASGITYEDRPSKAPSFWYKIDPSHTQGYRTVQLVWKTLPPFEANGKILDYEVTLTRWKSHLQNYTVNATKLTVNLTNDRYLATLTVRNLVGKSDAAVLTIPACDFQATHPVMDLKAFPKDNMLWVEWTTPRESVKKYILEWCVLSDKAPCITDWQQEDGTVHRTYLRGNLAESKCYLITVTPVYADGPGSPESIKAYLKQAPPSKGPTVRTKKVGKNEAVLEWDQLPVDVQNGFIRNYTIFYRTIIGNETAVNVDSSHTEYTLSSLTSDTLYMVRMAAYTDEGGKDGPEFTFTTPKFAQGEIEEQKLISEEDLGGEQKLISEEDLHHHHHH
T3 sequence (P40189 other isoform, or with tags, fused parts or gaps mutant limits assumed): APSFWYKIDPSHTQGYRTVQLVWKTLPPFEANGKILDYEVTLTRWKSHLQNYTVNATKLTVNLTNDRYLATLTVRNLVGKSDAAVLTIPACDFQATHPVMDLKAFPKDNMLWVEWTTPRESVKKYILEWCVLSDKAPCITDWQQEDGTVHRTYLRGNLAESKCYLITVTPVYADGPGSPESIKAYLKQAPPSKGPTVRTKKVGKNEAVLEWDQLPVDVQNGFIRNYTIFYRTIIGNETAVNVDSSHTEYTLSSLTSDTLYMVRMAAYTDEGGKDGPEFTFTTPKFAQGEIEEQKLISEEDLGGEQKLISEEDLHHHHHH

| Binder | Luminex MFI signal [1] [MFI] | Luminex MFI signal [2] [MFI] | Luminex MFI signal [3] [MFI] | Max Blocking of Antibody at 200 nM (%) [4] [%] | IC50 [4] [nM] |
| --- | --- | --- | --- | --- | --- |
| MAb16682 (antibody, V domains shown, hIgG4 isotype control used) VH: EVQLVESGGGLVQPGGSLRLSCAASGFTFSTYWMNWVRQAPGKGLEWVANIKEDGSEKYYVDSVKGRFTISRDNAKNSLYLQMNSLRAEDTAVYYCAREGFGVVTYIWGQGTMVTVSS VL: not shown | 13800 | 13 | 1380 | -3.39 | – |
| MAb16636 (antibody, V domains shown, hIgG4 isotype control used) VH: QLQLQESGPGLVKPSETLSLICTVSGGSISSNNYYWGWIRQPPGKGLEWIGNLYGSGSTYYNPSLKSRVTISVDTSKNQFSLKLSFVTAADTAVYHCARWDTNGGAFDIWGQGTMVTVSS VL: not shown | 17600 | 1070 | 4260 | 94.8 | 1.1 |
| MAb16676 (antibody, V domains shown, hIgG4 isotype control used) VH: QVQLVQSGAEVMKPGASVKVSCRASGYTFSSYDINWVRQAPGQGLEWMGWISTATGNTNYPQKVQGRVTMTTDTSTNTAYMELRSLRSDDTAVYYCTREGNSKGWLDPWGQGTLVTVSS VL: not shown | 18100 | 686 | 364 | -15.4 | – |
| MAb16665 (antibody, V domains shown, hIgG4 isotype control used) VH: QVQLVESGGGVVQPGRSLRLACAASGFTFRSYGMHWVRQAPGKGLEWVAVIWYDGSNKYYTDSVKGRFTISRDNSKNTLYLQMNSLRAEDTAMYYCAIDKWATVTTYLFDYWGQGTLVTVSS VL: not shown | 16300 | 116 | 119 | -47.1 | – |
| MAb16659 (antibody, V domains shown, hIgG4 isotype control used) VH: QVQLVQSGPEVKKPGSSVKVSCKASGGTIDRNEITWVRQAPGQGLEWMGVIIPILGEAHYERKFQGRLTITMDESTSTAYMELSNLRSEDTAVYYCARERAARGYLDYWGQGTLVTVSS VL: not shown | 17100 | 22 | 49 | -18.8 | – |
| MAb16664 (antibody, V domains shown, hIgG4 isotype control used) VH: QVQLVQSGTEVKKPGSSVKVSCKASGGTFSTYPINWVRQAPGQGLEWMGGIIPIFGTASYAQKFQGRVAITTDESTSTAYMELNSLRSEDTAVYYCARERPNWGSNDYWGQGTLVTVSS VL: not shown | 19300 | 419 | 442 | -46.5 | – |
| MAb16673 (antibody, V domains shown, hIgG4 isotype control used) VH: EVQLVQSGAEVKKPGESLKISCKGSGYSFTSYWIDWVRQMPGKGLEWMGIIYPDDSDTRYSPSFQGQVTMSVDKSISTAYLQWSSLKASDTAIYYCARHERGIVEAGTDYYYYYGMDVWGQGTTVTVSS VL: not shown | 15100 | 33 | 2340 | 104 | 2.37 |
| MAb16618 (antibody, V domains shown, hIgG4 isotype control used) VH: QVQLQESGPGLVKPSETLSLTCTVSGGSISNYYWTWIRQPPGKGLEWIGHISNSGTTNYNPSLKSRVTISVDTSKNQFSLKLTSVTAADTAVYYCARLPLGIAAVDTDYYYYFGMDVWGQGTTVTVSS VL: not shown | 19000 | 19 | 2630 | 86.7 | 2.37 |
| MAb16623 (antibody, V domains shown, hIgG4 isotype control used) VH: EVQLVESGGGLVQPGGSLRLSCAASGLTFSSYEMNWVRQAPGKGLEWVSHISSAGSTKYYADSVKGRFTISRDNAKNSLFLQMNSLRAEDTAIYYCAGYNYAYYYFGVDVWGQGTTVTVSS VL: not shown | 17600 | 16000 | 12600 | -49.2 | – |
| MAb16656 (antibody, V domains shown, hIgG4 isotype control used) VH: EVQLVESGGGLVQPGRSLRLSCAASGFTLDDFAMHWVRQAPGKGLEWVSGISWNSGNIGYADSVKGRFTISRDNARNSLYLQMNSLRAEDTALYYCTSGYYLYYAMDVWGQGTTVTVSS VL: not shown | 15900 | 17 | 48 | -24.7 | – |
| MAb16622 (antibody, V domains shown, hIgG4 isotype control used) VH: EVQLVESGGGVVRPGGSLRLSCTASGFTFDDYGMSWVRQAPGKGLEWVSGINWNGGRTEYADAVKGRFIISRDNAKNSLYLQMNSLRAEDTALYFCARTELRWDYWGQGTLVTVSS VL: not shown | 18500 | 20 | 391 | -84.1 | – |
| MAb16669 (antibody, V domains shown, hIgG4 isotype control used) VH: EVQLVESGGGLVQPGGSLRLSCAASGFTFSSYAMNWVRQAPGKGLEWVSAISGSGDSTYYTDSVKGRFTISRDNSKNTLYLQMNTLRAEDTAVYYCAKEEIVMLVGATPGWFDPWGQGTLVTVSS VL: not shown | 17600 | 15100 | 12600 | 47.1 | 12.3 |
| MAb16637 (antibody, V domains shown, hIgG4 isotype control used) VH: QVQLVQSGAEVKKPGASVKVSCKASGYTFTSLGISWVRQAPGQGLEWMGWISAYSGNRDYAQKFQGRVTMTTDTSTSTAYMELRSLRSDDTAVYYCARSLRFDYWGQGTLVTVSS VL: not shown | 16900 | 861 | 342 | -38.9 | – |
| MAb16666 (antibody, V domains shown, hIgG4 isotype control used) VH: EVQLVESGGGLVQSGGSLRLSCAASGFTFSRYEMNWVRQAPGKGLEWVAYISNTGTTRDYSDSVKGRFTISRDNAKNSLYLQMSSLRVEDTAVYYCVREKFSGTSDWFDPWGQGTLVTVSS VL: not shown | 16700 | 319 | 7280 | 103 | – |
| MAb16662 (antibody, V domains shown, hIgG4 isotype control used) VH: EVQLVESGGGLVQPGGSLRLSCTASGFTFSNYAIFWVRQAPGKGLEYVSGISNNGVTKYYADSVRDRFTISRDNSRNTVSIQMDSLRTEDMAVYYCARENWGSDDGFDIWGQGTMVTVSS VL: not shown | 13900 | 16 | 3050 | 81.9 | 6.51 |
